Laboratory results as given in the supplement of paper PMC11316812.
± gives the standard deviation of the averaged measurements.

Key:
MCF7 = experiment: percentage of EdU-negative (G0-arrested) nuclei per well, 72 h; higher = more G0 arrest; details: reference: sequence is the full UniProt precursor, the tested protein was the secreted form or ectodomain
hTERT-HMEC = experiment: as above; details: reference: sequence is the full UniProt precursor, the tested protein was the secreted form or ectodomain
[1] = protein concentration 0.00975 µM
[2] = protein concentration 0.0975 µM
[3] = protein concentration 0.0225 µM
[4] = protein concentration 0.03125 µM
[5] = protein concentration 0.3125 µM
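Also: secreted proteins added to cultured cells, EdU pulse at the end, nuclei found by Hoechst imaging, EdU status from nuclear versus surrounding ring intensity ratio, PBS as neutral control.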

Row | Sequence | percentage of EdU-negative (MCF7; [3]) | percentage of EdU-negative (MCF7; protein concentration 0.225 µM) | percentage of EdU-negative (hTERT-HMEC; [3]) | percentage of EdU-negative (hTERT-HMEC; protein concentration 0.225 µM) | also measured
1 | MVAATVAAAWLLLWAAACAQQEQDFYDFKAVNIRGKLVSLEKYRGSVSLVVNVASECGFTDQHYRALQQLQRDLGPHHFNVLAFPCNQFGQQEPDSNKEIESFARRTYSVSFPMFSKIAVTGTGAHPAFKYLAQTSGKEPTWNFWKYLVAPDGKVVGAWDPTVSVEEVRPQITALVRKLILLKREDL [Q96SL4] |  |  |  |  | percentage of EdU-negative (MCF7; [1]): 25.2 ± 2%; percentage of EdU-negative (MCF7; [2]): 27.1 ± 1.4%; percentage of EdU-negative (hTERT-HMEC; [1]): 4.59 ± 0.052%; percentage of EdU-negative (hTERT-HMEC; [2]): 5.66 ± 0.28%
2 | MVAGSDAGRALGVLSVVCLLHCFGFISCFSQQIYGVVYGNVTFHVPSNVPLKEVLWKKQKDKVAELENSEFRAFSSFKNRVYLDTVSGSLTIYNLTSSDEDEYEMESPNITDTMKFFLYVLESLPSPTLTCALTNGSIEVQCMIPEHYNSHRGLIMYSWDCPMEQCKRNSTSIYFKMENDLPQKIQCTLSNPLFNTTSSIILTTCIPSSGHSRHRYALIPIPLAVITTCIVLYMNGILKCDRKPDRTNSN | 27.3 ± 0.7% | 26.7 ± 1.6% | 5.39 ± 0.14% | 5.59 ± 0.33% | 
3 | MVAPGLVLGLVLPLILWADRSAGIGFRFASYINNDMVLQKEPAGAVIWGFGTPGATVTVTLRQGQETIMKKVTSVKAHSDTWMVVLDPMKPGGPFEVMAQQTLEKINFTLRVHDVLFGDVWLCSGQSNMQMTVLQIFNATRELSNTAAYQSVRILSVSPIQAEQELEDLVAVDLQWSKPTSENLGHGYFKYMSAVCWLFGRHLYDTLQYPIGLIASSWGGTPIEAWSSGRSLKACGVPKQGSIPYDSVTGPSKHSVLWNAMIHPLCNMTLKGVVWYQGESNINYNTDLYNCTFPALIEDWRETFHRGSQGQTERFFPFGLVQLSSDLSKKSSDDGFPQIRWHQTADFGYVPNPKMPNTFMAVAMDLCDRDSPFGSIHPRDKQTVAYRLHLGARALAYGEKNLTFEGPLPEKIELLAHKGLLNLTYYQQIQVQKKDNKIFEISCCSDHRCKWLPASMNTVSTQSLTLAIDSCHGTVVALRYAWTTWPCEYKQCPLYHPSSALPAPPFIAFITDQGPGHQSNVAK [Q9HAT2] | 24.9 ± 0.68% | 24.8 ± 0.63% | 5.13 ± 1% | 7.82 ± 1.7% | 
4 | MVAPKSHTDDWAPGPFSSKPQRSQLQIFSSVLQTSLLFLLMGLRASGKDSAPTVVSGILGGSVTLPLNISVDTEIENVIWIGPKNALAFARPKENVTIMVKSYLGRLDITKWSYSLCISNLTLNDAGSYKAQINQRNFEVTTEEEFTLFVYEQLQEPQVTMKSVKVSENFSCNITLMCSVKGAEKSVLYSWTPREPHASESNGGSILTVSRTPCDPDLPYICTAQNPVSQRSSLPVHVGQFCTDPGASRGGTTGETVVGVLGEPVTLPLALPACRDTEKVVWLFNTSIISKEREEAATADPLIKSRDPYKNRVWVSSQDCSLKISQLKIEDAGPYHAYVCSEASSVTSMTHVTLLIYRRLRKPKITWSLRHSEDGICRISLTCSVEDGGNTVMYTWTPLQKEAVVSQGESHLNVSWRSSENHPNLTCTASNPVSRSSHQFLSENICSGPERNTKLWIGLFLMVCLLCVGIFSWCIWKRKGRCSVPAFCSSQAEAPADTPEPTAGHTLYSVLSQGYEKLDTPLRPARQQPTPTSDSSSDSNLTTEEDEDRPEVHKPISGRYEVFDQVTQEGAGHDPAPEGQADYDPVTPYVTEVESVVGENTMYAQVFNLQGKTPVSQKEESSATIYCSIRKPQVVPPPQQNDLEIPESPTYENFT [Q9HBG7] |  |  |  |  | percentage of EdU-negative (MCF7; protein concentration 0.02 µM): 25.2 ± 0.84%; percentage of EdU-negative (MCF7; protein concentration 0.2 µM): 29.3 ± 0.77%; percentage of EdU-negative (hTERT-HMEC; protein concentration 0.02 µM): 4.82 ± 0.27%; percentage of EdU-negative (hTERT-HMEC; protein concentration 0.2 µM): 7.12 ± 0.12%
5 | MVATKTFALLLLSLFLAVGLGEKKEGHFSALPSLPVGSHAKVSSPQPRGPRYAEGTFISDYSIAMDKIHQQDFVNWLLAQKGKKNDWKHNITQREARALELASQANRKEEEAVEPQSSPAKNPSDEDLLRDLLIQELLACLLDQTNLCRLRSR | 26.1 ± 1.5% | 24.3 ± 2.4% | 4.89 ± 0.063% | 6.12 ± 0.68% | 
6 | MVDGVMILPVLIMIALPSPSMEDEKPKVNPKLYMCVCEGLSCGNEDHCEGQQCFSSLSINDGFHVYQKGCFQVYEQGKMTCKTPPSPGQAVECCQGDWCNRNITAQLPTKGKSFPGTQNFHLEVGLIILSVVFAVCLLACLLGVALRKFKRRNQERLNPRDVEYGTIEGLITTNVGDSTLADLLDHSCTSGSGSGLPFLVQRTVARQITLLECVGKGRYGEVWRGSWQGENVAVKIFSSRDEKSWFRETELYNTVMLRHENILGFIASDMTSRHSSTQLWLITHYHEMGSLYDYLQLTTLDTVSCLRIVLSIASGLAHLHIEIFGTQGKPAIAHRDLKSKNILVKKNGQCCIADLGLAVMHSQSTNQLDVGNNPRVGTKRYMAPEVLDETIQVDCFDSYKRVDIWAFGLVLWEVARRMVSNGIVEDYKPPFYDVVPNDPSFEDMRKVVCVDQQRPNIPNRWFSDPTLTSLAKLMKECWYQNPSARLTALRIKKTLTKIDNSLDKLKTDC | 26.7 ± 0.75% | 27.2 ± 0.41% | 5.41 ± 0.37% | 5.41 ± 1.3% | 
7 | MVFLPLKWSLATMSFLLSSLLALLTVSTPSWCQSTEASPKRSDGTPFPWNKIRLPEYVIPVHYDLLIHANLTTLTFWGTTKVEITASQPTSTIILHSHHLQISRATLRKGAGERLSEEPLQVLEHPRQEQIALLAPEPLLVGLPYTVVIHYAGNLSETFHGFYKSTYRTKEGELRILASTQFEPTAARMAFPCFDEPAFKASFSIKIRREPRHLAISNMPLVKSVTVAEGLIEDHFDVTVKMSTYLVAFIISDFESVSKITKSGVKVSVYAVPDKINQADYALDAAVTLLEFYEDYFSIPYPLPKQDLAAIPDFQSGAMENWGLTTYRESALLFDAEKSSASSKLGITMTVAHELAHQWFGNLVTMEWWNDLWLNEGFAKFMEFVSVSVTHPELKVGDYFFGKCFDAMEVDALNSSHPVSTPVENPAQIREMFDDVSYDKGACILNMLREYLSADAFKSGIVQYLQKHSYKNTKNEDLWDSMASICPTDGVKGMDGFCSRSQHSSSSSHWHQEGVDVKTMMNTWTLQKGFPLITITVRGRNVHMKQEHYMKGSDGAPDTGYLWHVPLTFITSKSDMVHRFLLKTKTDVLILPEEVEWIKFNVGMNGYYIVHYEDDGWDSLTGLLKGTHTAVSSNDRASLINNAFQLVSIGKLSIEKALDLSLYLKHETEIMPVFQGLNELIPMYKLMEKRDMNEVETQFKAFLIRLLRDLIDKQTWTDEGSVSERMLRSQLLLLACVHNYQPCVQRAEGYFRKWKESNGNLSLPVDVTLAVFAVGAQSTEGWDFLYSKYQFSLSSTEKSQIEFALCRTQNKEKLQWLLDESFKGDKIKTQEFPQILTLIGRNPVGYPLAWQFLRKNWNKLVQKFELGSSSIAHMVMGTTNQFSTRTRLEEVKGFFSSLKENGSQLRCVQQTIETIEENIGWMDKNFDKIRVWLQSEKLERM [Q9NZ08] | 28.5 ± 2.6% | 25.9 ± 1.9% | 5.43 ± 0.72% | 9.42 ± 1.9% | 
8 | MVGAMWKVIVSLVLLMPGPCDGLFRSLYRSVSMPPKGDSGQPLFLTPYIEAGKIQKGRELSLVGPFPGLNMKSYAGFLTVNKTYNSNLFFWFFPAQIQPEDAPVVLWLQGGPGGSSMFGLFVEHGPYVVTSNMTLRDRDFPWTTTLSMLYIDNPVGTGFSFTDDTHGYAVNEDDVARDLYSALIQFFQIFPEYKNNDFYVTGESYAGKYVPAIAHLIHSLNPVREVKINLNGIAIGDGYSDPESIIGGYAEFLYQIGLLDEKQKKYFQKQCHECIEHIRKQNWFEAFEILDKLLDGDLTSDPSYFQNVTGCSNYYNFLRCTEPEDQLYYVKFLSLPEVRQAIHVGNQTFNDGTIVEKYLREDTVQSVKPWLTEIMNNYKVLIYNGQLDIIVAAALTERSLMGMDWKGSQEYKKAEKKVWKIFKSDSEVAGYIRQAGDFHQVIIRGGGHILPYDQPLRAFDMINRFIYGKGWDPYVG [Q9H3G5] |  |  |  |  | percentage of EdU-negative (MCF7; protein concentration 0.014 µM): 26.1 ± 4.2%; percentage of EdU-negative (MCF7; protein concentration 0.14 µM): 29.1 ± 0.47%; percentage of EdU-negative (hTERT-HMEC; protein concentration 0.014 µM): 5.19 ± 0.19%; percentage of EdU-negative (hTERT-HMEC; protein concentration 0.14 µM): 6.64 ± 0.14%
9 | MVGKLKQNLLLACLVISSVTVFYLGQHAMECHHRIEERSQPVKLESTRTTVRTGLDLKANKTFAYHKDMPLIFIGGVPRSGTTLMRAMLDAHPDIRCGEETRVIPRILALKQMWSRSSKEKIRLDEAGVTDEVLDSAMQAFLLEIIVKHGEPAPYLCNKDPFALKSLTYLSRLFPNAKFLLMVRDGRASVHSMISRKVTIAGFDLNSYRDCLTKWNRAIETMYNQCMEVGYKKCMLVHYEQLVLHPERWMRTLLKFLQIPWNHSVLHHEEMIGKAGGVSLSKVERSTDQVIKPVNVGALSKWVGKIPPDVLQDMAVIAPMLAKLGYDPYANPPNYGKPDPKIIENTRRVYKGEFQLPDFLKEKPQTEQVE | 26.5 ± 0.46% | 25.4 ± 1.6% | 4.95 ± 1.4% | 7.95 ± 0.61% | 
10 | MVGKMWPVLWTLCAVRVTVDAISVETPQDVLRASQGKSVTLPCTYHTSTSSREGLIQWDKLLLTHTERVVIWPFSNKNYIHGELYKNRVSISNNAEQSDASITIDQLTMADNGTYECSVSLMSDLEGNTKSRVRLLVLVPPSKPECGIEGETIIGNNIQLTCQSKEGSPTPQYSWKRYNILNQEQPLAQPASGQPVSLKNISTDTSGYYICTSSNEEGTQFCNITVAVRSPSMNVALYVGIAVGVVAALIIIGIIIYCCCCRGKDDNTEDKEDARPNREAYEEPPEQLRELSREREEEDDYRQEEQRSTGRESPDHLDQ | 26.33 ± 0.14% | 28.18 ± 0.27% | 4.72 ± 0.17% | 5.86 ± 0.41% | 
11 | MVGPAPRRRLRPLAALALVLALAPGLPTARAGQTPRPAERGPPVRLFTEEELARYGGEEEDQPIYLAVKGVVFDVTSGKEFYGRGAPYNALTGKDSTRGVAKMSLDPADLTHDTTGLTAKELEALDEVFTKVYKAKYPIVGYTARRILNEDGSPNLDFKPEDQPHFDIKDEF [Q9UMX5] |  |  |  |  | percentage of EdU-negative (MCF7; [4]): 22.8 ± 0.65%; percentage of EdU-negative (MCF7; [5]): 23.5 ± 1.4%; percentage of EdU-negative (hTERT-HMEC; [4]): 4.98 ± 0.59%; percentage of EdU-negative (hTERT-HMEC; [5]): 6.64 ± 2.3%
